# Results reported in paper PMC9170038, “Crowdsourced RNA design discovers diverse, reversible, efficient, self-contained molecular switches”.
# B1: Eterna 10033 (Sensor v3, turn-off variant 2) (ssRNA)
# RNA: ACUAGCGAAAUGCUCGUCUUAUUUUUGUAGAGGUUCUAAACAUGAGGAUCACCCAUGUAGUGGUUUUUGUGGAGGUA
# B2: Eterna 1174 (Exclusion - Theophylline B) (ssRNA)
# RNA: GCUGUCCAGUUCGAUACCAGAGUUAUCGCACUGUAGUGAUAAAGUGAUGUUUUAUCAGUCCUCCCUUGGCAGCGAUGCCCGGCUG
# B3: Eterna 7695377 (Same State - Theophylline A) (ssRNA)
# RNA: UCUUAACUAAAAUAAUGGGAUACCAGUGAUACCAGCCAUAUGCAGGGCCCUUGGCAGCACCCUUGGCAGCCUCGAGUGAUGUUCG
# B4: Eterna 7709687 (Same State - Tryptophan B) (ssRNA)
# RNA: UAUUAAGUGACGGCCGCCACUAUGGUGAUUUAUUUGUUUGAGUGAUGUUUUGAUGUUUGAUUUUGUAGGACCGGGUUAUGUGUUA
# B5: Eterna 1521 (Same State - FMN A) (ssRNA)
# RNA: CGUAAGGAUUGACGACUGCAGAGCAAAAUAAAGGAUAUCGCAGCGUCGAGAAGGUUAUCGUGCGCCAGUGAUGUUGGCGGUAGUC
# B6: Eterna 1257 (Exclusion - Tryptophan B) (ssRNA)
# RNA: CUGUUUUAGUCGGCCGCCACUGCAAGUGAUGUUUGGAGUAUUAUGCCGUUUCUGUCCAUUGAACCCAGGACCGGGACCGGAUCGU
# B7: Eterna 7720201 (Exclusion - Theophylline B) (ssRNA)
# RNA: CCUAUCUCAUACGAUACCAGUCUACGAUAUUUUAUCGUUGCCAACACCGAGUGAUGUUCGGACCCUUGGCAGCGUAUGGGAUAGG
# B8: Eterna 5998949 (Sensor, turn-off variant 1) (ssRNA)
# RNA: UUUCCGGCGCGGGUUUUUUACAUGAGGAUCACCCAUGUCCUCUGCUUGUCUUGUCUUGGGCUUUUUUUGGGUUCGGG
# B9: Eterna 6417730 (Small Loop Same State NG 3) (ssRNA)
# RNA: ACAUGAGGAUCUCCCAUGUAAAAUUAGGAUAUAUAACUGCACAUGAGGAUCACCCAUGUUUAACCGUAGAAGGGAUAAAUAAUU
# B10: Eterna 1188 (Exclusion - Theophylline B) (ssRNA)
# RNA: AGCUGCCGAAUAGAUACCAGUGUCUUUAGUGAUGUUUCAGAGCUGGCACGAUCAGAAGGUCACCCUUGGCAGCUAGUGCCAGCGU
# B11: Eterna 5988416 (Sensor, turn-off variant 1) (ssRNA)
# RNA: UCACAAGCUGUGGGUGGUGACAUGAGGAUCACCCAUGUUUUGCUCGUCUUGUGCCGGGCCCGGCGCCCGGGCCCGGC
# B12: Eterna 7705565 (Exclusion - FMN A) (ssRNA)
# RNA: AGACUACCACACUGUCAAUAGACAGUGAACUAGGAUAUGCUGAUAAGCAGAAGGAGUGAUGUUCCUAAAGGUAGUCAAAUAUAAU
# B13: Eterna 6429508 (Inverted Exclusion NG 3) (ssRNA)
# RNA: GGGUGCCCUGCAGAAGCGACAUGAGGAUCACCCAUGUAACGUAGAAGGGCCCGGAACUAAGGUGGGCAGGAUAUACUGUUAGGU
# B14: Eterna 6429692 (Inverted Same State NG 1) (ssRNA)
# RNA: AUCAUGCUCAAGAAGGACAUGAGGAUCACCCAUGUAGGAUAUUGGGCGGUCACUUCUAGCUUGUGUGUAUCUGAAUACUCCAGG
# B15: Eterna 7634493 (Same State - Theophylline A) (ssRNA)
# RNA: ACAUGAGGAUCACCCAUGUCUGCCACUGAUACCAGCGGAAGAAAACGCCCUUGGCAGCAGAACAUGAGGAUCACCCAUGUAGGCU
# Target: T1, MS2 coat protein, dlFG mutant (Escherichia phage MS2, UniProt P03612, del68-81insG)
# Test: 4 mM Mg2+; miR-208a RNA 100 nM (AU…UUGU); RNA-MaP array; 100 mM Tris-HCl pH 7.5, 80 mM KCl, 4 mM MgCl2, 0.1 mg/mL BSA, 1 mM DTT, 0.01 mg/mL yeast tRNA, 0.01% Tween-20; protein 1.5 nM to 3 uM; 37 C (Table S3)
# Conditions: chain copies: 2; label: tethered by stalled RNA polymerase
row,Binder,Kd
1,B1,265 nM

# Target: T1, MS2 coat protein, dlFG mutant
# Test: 4 mM Mg2+; no ligand; RNA-MaP array; 100 mM Tris-HCl pH 7.5, 80 mM KCl, 4 mM MgCl2, 0.1 mg/mL BSA, 1 mM DTT, 0.01 mg/mL yeast tRNA, 0.01% Tween-20; protein 1.5 nM to 3 uM; 37 C (Table S3)
# Conditions: chain copies: 2; label: tethered by stalled RNA polymerase
row,Binder,Kd
1,B2,> 3000 nM
2,UUUCAGGGCAGUGAUGUUGCCCUCUUU (ssRNA) [Eterna 9 (K4-7bp_control)],> 3000 nM
3,B3,> 3000 nM
4,B4,> 3000 nM
5,B5,> 3000 nM
6,B6,> 3000 nM
7,B7,> 3000 nM
8,B8,798 nM
9,B9,1100 nM
10,B10,> 3000 nM
11,B11,1080 nM
12,B12,> 3000 nM

# Target: T1, MS2 coat protein, dlFG mutant
# Test: 4 mM Mg2+; FMN 200 uM; RNA-MaP array; 100 mM Tris-HCl pH 7.5, 80 mM KCl, 4 mM MgCl2, 0.1 mg/mL BSA, 1 mM DTT, 0.01 mg/mL yeast tRNA, 0.01% Tween-20; protein 1.5 nM to 3 uM; 37 C (Table S3)
# Conditions: chain copies: 2; label: tethered by stalled RNA polymerase
row,Binder,Kd
1,B13,7.24 nM
2,B14,7.54 nM

# Target: T1, MS2 coat protein, dlFG mutant
# Test: 4 mM Mg2+; theophylline 2 mM; RNA-MaP array; 100 mM Tris-HCl pH 7.5, 80 mM KCl, 4 mM MgCl2, 0.1 mg/mL BSA, 1 mM DTT, 0.01 mg/mL yeast tRNA, 0.01% Tween-20; protein 1.5 nM to 3 uM; 37 C (Table S3)
# Conditions: chain copies: 2; label: tethered by stalled RNA polymerase
row,Binder,Kd
1,B15,188 nM
